test system: Escherichia coli TOP10; test: shrunken log2 fold change of peptide-encoding DNA abundance (4.5 h post-induction vs induction); higher = less antimicrobial activity (less host growth inhibition); details: time post-induction: 4.5 h; library: site-saturation at positions 5, 18, 19, 20
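Also: peptides expressed intracellularly from a pBAD plasmid library in pooled LB shake-flask culture, induced with 0.3% L-arabinose, DNA abundance read by NGS, three biological replicates, DESeq2 with apeglm shrinkage.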

Sequence | shrunken log2 fold change
RRIRCRPPRLPRPRPRPWQDPRP | -0.154
RRIRWRPPRLPRPRPRPVRNPRP | 0.432
RRIRNRPPRLPRPRPRPTDWPRP | 0.328
RRIRWRPPRLPRPRPRPMCFPRP | 0.0876
RRIRMRPPRLPRPRPRPMTMPRP | 0.178
RRIRSRPPRLPRPRPRPMVPPRP | -0.0173
RRIRTRPPRLPRPRPRPDDHPRP | -0.00476
RRIRRRPPRLPRPRPRPCLNPRP | -0.4
RRIRCRPPRLPRPRPRPWQGPRP | -0.0944
RRIRYRPPRLPRPRPRPPCDPRP | -0.196
RRIRTRPPRLPRPRPRPDPDPRP | -0.0398
RRIRNRPPRLPRPRPRPYEQPRP | -0.54
RRIRKRPPRLPRPRPRPFYWPRP | 0.144
RRIRWRPPRLPRPRPRPLQNPRP | -0.11
RRIRQRPPRLPRPRPRPHHFPRP | -0.0176
RRIRLRPPRLPRPRPRPCCQPRP | -0.194
RRIRGRPPRLPRPRPRPLQHPRP | 1.18
RRIRYRPPRLPRPRPRPNESPRP | 0.0169
RRIRPRPPRLPRPRPRPDVMPRP | 0.16
RRIRWRPPRLPRPRPRPTKMPRP | 0.344
RRIRQRPPRLPRPRPRPWCLPRP | -0.275
RRIRMRPPRLPRPRPRPGWDPRP | 0.297
RRIRLRPPRLPRPRPRPNQQPRP | 0.0291
RRIRMRPPRLPRPRPRPIHQPRP | -0.108
RRIRIRPPRLPRPRPRPASVPRP | -0.102

Sequence | shrunken log2 fold change
RRIRTRPPRLPRPRPRPLREPRP | 0.318
RRIRSRPPRLPRPRPRPIVHPRP | -0.2
RRIRYRPPRLPRPRPRPEKVPRP | -0.241
RRIRWRPPRLPRPRPRPYMTPRP | -0.877
RRIRNRPPRLPRPRPRPELKPRP | 0.00533
RRIRHRPPRLPRPRPRPTSVPRP | -0.0283
RRIRQRPPRLPRPRPRPQCPPRP | -0.229
RRIRQRPPRLPRPRPRPWGYPRP | -0.166
RRIRERPPRLPRPRPRPWWRPRP | 0.098
RRIRDRPPRLPRPRPRPHILPRP | 0.0348
RRIRKRPPRLPRPRPRPVAGPRP | 0.127
RRIRDRPPRLPRPRPRPPHPPRP | 0.235
RRIRYRPPRLPRPRPRPFWFPRP | -0.264
RRIRWRPPRLPRPRPRPFMLPRP | -0.174
RRIRWRPPRLPRPRPRPQDAPRP | -0.0395
RRIRLRPPRLPRPRPRPYPLPRP | -0.413
RRIRERPPRLPRPRPRPDYLPRP | -0.612
RRIRTRPPRLPRPRPRPIDDPRP | -0.498
RRIRERPPRLPRPRPRPREHPRP | -0.0329
RRIRMRPPRLPRPRPRPMEMPRP | 0.515
RRIRQRPPRLPRPRPRPKFGPRP | 0.102
RRIRTRPPRLPRPRPRPFPDPRP | -0.123
RRIRNRPPRLPRPRPRPLETPRP | -0.0418
RRIRQRPPRLPRPRPRPCITPRP | -0.167
RRIRMRPPRLPRPRPRPKDTPRP | 1.86

Sequence | shrunken log2 fold change
RRIRIRPPRLPRPRPRPIGFPRP | 0.0766
RRIRFRPPRLPRPRPRPTPKPRP | 0.681
RRIRSRPPRLPRPRPRPWGMPRP | -0.0848
RRIRIRPPRLPRPRPRPHTMPRP | -0.776
RRIRYRPPRLPRPRPRPLGRPRP | -0.191
RRIRVRPPRLPRPRPRPRPRPRP | 0.62
RRIRFRPPRLPRPRPRPNMCPRP | -0.54
RRIRNRPPRLPRPRPRPFHYPRP | -0.925
RRIRQRPPRLPRPRPRPQKTPRP | -0.064
RRIRDRPPRLPRPRPRPEIPPRP | -0.0405
RRIRGRPPRLPRPRPRPQVDPRP | 0.266
RRIRHRPPRLPRPRPRPHVEPRP | -0.0794
RRIRWRPPRLPRPRPRPDWYPRP | -0.268
RRIRDRPPRLPRPRPRPVDCPRP | -0.0327
RRIRVRPPRLPRPRPRPAYLPRP | 0.0246
RRIRWRPPRLPRPRPRPPPHPRP | 0.721
RRIRMRPPRLPRPRPRPVNKPRP | -0.256
RRIRSRPPRLPRPRPRPNVHPRP | -0.312
RRIRPRPPRLPRPRPRPLNIPRP | -0.809
RRIRYRPPRLPRPRPRPKWNPRP | -0.483
RRIRFRPPRLPRPRPRPSAWPRP | 0.534
RRIRQRPPRLPRPRPRPRWHPRP | 0.197
RRIRHRPPRLPRPRPRPKSSPRP | -0.0395
RRIRTRPPRLPRPRPRPANLPRP | -0.0546
RRIRSRPPRLPRPRPRPLFDPRP | -0.335

Sequence | shrunken log2 fold change
RRIRMRPPRLPRPRPRPFQWPRP | -0.0962
RRIRDRPPRLPRPRPRPYLKPRP | -0.443
RRIRLRPPRLPRPRPRPPRRPRP | 0.746
RRIRGRPPRLPRPRPRPQVHPRP | 0.231
RRIRIRPPRLPRPRPRPEGRPRP | -0.0382
RRIRFRPPRLPRPRPRPTESPRP | -0.154
RRIRPRPPRLPRPRPRPWAYPRP | -0.0727
RRIRVRPPRLPRPRPRPTEDPRP | -0.113
RRIRDRPPRLPRPRPRPGWEPRP | 0.00884
RRIRERPPRLPRPRPRPCHYPRP | -0.224
RRIRGRPPRLPRPRPRPHCGPRP | -0.0798
RRIRRRPPRLPRPRPRPMDNPRP | 0.158
RRIRMRPPRLPRPRPRPDIPPRP | -0.0804
RRIRRRPPRLPRPRPRPHQNPRP | 0.769
RRIRQRPPRLPRPRPRPSQVPRP | -0.23
RRIRCRPPRLPRPRPRPCAFPRP | -0.311
RRIRVRPPRLPRPRPRPKCPPRP | 0.0181
RRIRWRPPRLPRPRPRPHCRPRP | 0.0889
RRIRCRPPRLPRPRPRPPGRPRP | 1.16
RRIRGRPPRLPRPRPRPAKLPRP | 0.154
RRIRARPPRLPRPRPRPLKVPRP | -0.0599
RRIRHRPPRLPRPRPRPSRMPRP | -0.518
RRIRKRPPRLPRPRPRPYSTPRP | -0.0551
RRIRWRPPRLPRPRPRPPIPPRP | 0.0875
RRIRFRPPRLPRPRPRPMQYPRP | -0.683

Sequence | shrunken log2 fold change
RRIRERPPRLPRPRPRPCWNPRP | -0.107
RRIRRRPPRLPRPRPRPACCPRP | 0.714
RRIRFRPPRLPRPRPRPACPPRP | 0.12
RRIRHRPPRLPRPRPRPNPFPRP | -0.67
RRIRFRPPRLPRPRPRPKSSPRP | -0.103
RRIRHRPPRLPRPRPRPPYYPRP | -0.296
RRIRHRPPRLPRPRPRPNSKPRP | -0.737
RRIRKRPPRLPRPRPRPTQDPRP | 1.3
RRIRIRPPRLPRPRPRPGGIPRP | -0.279
RRIRVRPPRLPRPRPRPCNLPRP | -0.163
RRIRTRPPRLPRPRPRPQKVPRP | -0.0169
RRIRTRPPRLPRPRPRPDRLPRP | 0.0294
RRIRKRPPRLPRPRPRPINFPRP | -0.962
RRIRVRPPRLPRPRPRPYKVPRP | -0.0222
RRIRGRPPRLPRPRPRPYMAPRP | -0.388
RRIRLRPPRLPRPRPRPDQRPRP | 0.274
RRIRKRPPRLPRPRPRPAVFPRP | 0.271
RRIRKRPPRLPRPRPRPNHWPRP | 0.0915
RRIRKRPPRLPRPRPRPFGMPRP | -0.00211
RRIRDRPPRLPRPRPRPSMDPRP | -0.0183
RRIRRRPPRLPRPRPRPWVKPRP | 0.0557
RRIRCRPPRLPRPRPRPLDWPRP | 0.285
RRIRYRPPRLPRPRPRPMQHPRP | -0.17
RRIRHRPPRLPRPRPRPFNIPRP | 0.0518
RRIRQRPPRLPRPRPRPLICPRP | -0.0973

Sequence | shrunken log2 fold change
RRIRSRPPRLPRPRPRPEMWPRP | 0.67
RRIRGRPPRLPRPRPRPFRSPRP | -0.599
RRIRSRPPRLPRPRPRPCQWPRP | -0.134
RRIRFRPPRLPRPRPRPCNVPRP | -0.01
RRIRRRPPRLPRPRPRPVPFPRP | 0.0998
RRIRPRPPRLPRPRPRPLRDPRP | 0.522
RRIRHRPPRLPRPRPRPYLDPRP | 0.00552
RRIRIRPPRLPRPRPRPVGCPRP | 0.166
RRIRGRPPRLPRPRPRPRIQPRP | 0.337
RRIRRRPPRLPRPRPRPLFIPRP | -0.27
RRIRNRPPRLPRPRPRPCTHPRP | -0.147
RRIRFRPPRLPRPRPRPMMTPRP | 0.022
RRIRMRPPRLPRPRPRPWMVPRP | -0.128
RRIRFRPPRLPRPRPRPAHIPRP | -0.218
RRIRKRPPRLPRPRPRPVQGPRP | -0.0824
RRIRDRPPRLPRPRPRPYSRPRP | -0.00164
RRIRIRPPRLPRPRPRPIQSPRP | -0.0915
RRIRSRPPRLPRPRPRPEMHPRP | 0.0756
RRIRHRPPRLPRPRPRPDCTPRP | 0.0402
RRIRQRPPRLPRPRPRPDGCPRP | -0.103
RRIRVRPPRLPRPRPRPRDIPRP | -0.0591
RRIRARPPRLPRPRPRPQVVPRP | -0.0726
RRIRKRPPRLPRPRPRPSNWPRP | -0.00865
RRIRDRPPRLPRPRPRPCNGPRP | -0.143
RRIRVRPPRLPRPRPRPVKHPRP | -0.3
